What was measured:
[1] = target: CD28 (human, UniProt P10747); assay: cell-based or functional assay
[2] = target: T1, TIGIT (human, UniProt Q495A1); assay: cell-based or functional assay
T1 sequence: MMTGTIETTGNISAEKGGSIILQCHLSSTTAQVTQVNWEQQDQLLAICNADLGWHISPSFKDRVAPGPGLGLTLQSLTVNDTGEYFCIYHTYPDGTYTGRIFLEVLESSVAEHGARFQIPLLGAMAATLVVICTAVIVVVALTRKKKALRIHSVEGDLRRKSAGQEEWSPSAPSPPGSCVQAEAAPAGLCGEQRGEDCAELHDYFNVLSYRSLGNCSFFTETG

- 100 nM IFN-gamma (pg/mL), SEB assay [1]: 2120 pg/mL
- 100 nM IFN-gamma (pg/mL), SEB assay [2]: 2120 pg/mL
B1: CD155 665-ICOSL 2264-ICOSL 2264-CD155 665 (other)
chain: WPPPGTGDVVVQAPTQVSGFLGDSVTLPCYLQVPNMEVTHVSQLTWARHGESGSMAVFHQTQGPWYAESKRLEFVAARLGAELRNASLRVFGLRAEDEGNYTCQFVTFPQRSRSVDIWLRVLGGGGSGGGGTGGGGSDTQEKEVRAMVGSDVELSCACPEGSRFDLNDVYVYWQTSESKTVVTYHIPQHSSLEYVDSRYRNRALMSPAGMLRGDFSLRLFNVTPQDEQKFHCLVLSRSLGFQEVLSVEVTLHVAANFSVGGGGSGGGGSGGGGSDTQEKEVRAMVGSDVELSCACPEGSRFDLNDVYVYWQTSESKTVVTYHIPQHSSLEYVDSRYRNRALMSPAGMLRGDFSLRLFNVTPQDEQKFHCLVLSRSLGFQEVLSVEVTLHVAANFSVGSGGSGGGGSGGGGSWPPPGTGDVVVQAPTQVSGFLGDSVTLPCYLQVPNMEVTHVSQLTWARHGESGSMAVFHQTQGPWYAESKRLEFVAARLGAELRNASLRVFGLRAEDEGNYTCQFVTFPQRSRSVDIWLRVLGSGGGGSDYKDDDDKHHHHHH

From patent US20250163127A1 (published 2025)
